The results in this text go back to publication PMC10641296 (2023).

Values joined by “and” are separate entries in the source; they are usually repeats but may differ in a detail not shown here. Equal values may be shown once.

For test [1], the target named is recombinant histidine-tagged SCM-2 of S. canis strain IMT40096 (Streptococcus canis). Description: SPR.
Test [2] concerns the target recombinant histidine-tagged SCM-2 of S. canis strain IMT42870 (Streptococcus canis). Description: SPR.

B1: human fibrinogen (complex)
chain 1: GPRVVERHQSACKDSDWPFCSDEDWNYKCPSGCRMKGLIDEVNQDFTNRINKLKNSLFEYQKNNKDSHSLTTNIMEILRGDFSSANNRDNTYNRVSEDLRSRIEVLKRKVIEKVQHIQLLQKNVRAQLVDMKRLEVDIDIKIRSCRGSCSRALAREVDLKDYEDQQKQLEQVIAKDLLPSRDRQHLPLIKMKPVPDLVPGNFKSQLQKVPPEWKALTDMPQMRMELERPGGNEITRGGSTSYGTGSETESPRNPSSAGSWNSGSSGPGSTGNRNPGSSGTGGTATWKPGSSGPGSTGSWNSGSSGTGSTGNQNPGSPRPGSTGTWNPGSSERGSAGHWTSESSVSGSTGQWHSESGSFRPDSPGSGNARPNNPDWGTFEEVSGNVSPGTRREYHTEKLVTSKGDKELRTGKEKVTSGSTTTTRRSCSKTVTKTVIGPDGHKEVTKEVVTSEDGSDCPEAMDLGTLSGIGTLDGFRHRHPDEAAFFDTASTGKTFPGFFSPMLGEFVSETESRGSESGIFTNTKESSSHHPGIAEFPSRGKSSSYSKQFTSSTSYNRGDSTFESKSYKMADEAGSEADHEGTHSTKRGHAKSRPVRDCDDVLQTHPSGTQSGIFNIKLPGSSKIFSVYCDQETSLGGWLLIQQRMDGSLNFNRTWQDYKRGFGSLNDEGEGEFWLGNDYLHLLTQRGSVLRVELEDWAGNEAYAEYHFRVGSEAEGYALQVSSYEGTAGDALIEGSVEEGAEYTSHNNMQFSTFDRDADQWEENCAEVYGGGWWYNNCQAANLNGIYYPGGSYDPRNNSPYEIENGVVWVSFRGADYSLRAVRMKIRPLVTQ
chain 2: GHRPLDKKREEAPSLRPAPPPISGGGYRARPAKAAATQKKVERKAPDAGGCLHADPDLGVLCPTGCQLQEALLQQERPIRNSVDELNNNVEAVSQTSSSSFQYMYLLKDLWQKRQKQVKDNENVVNEYSSELEKHQLYIDETVNSNIPTNLRVLRSILENLRSKIQKLESDVSAQMEYCRTPCTVSCNIPVVSGKECEEIIRKGGETSEMYLIQPDSSVKPYRVYCDMNTENGGWTVIQNRQDGSVDFGRKWDPYKQGFGNVATNTDGKNYCGLPGEYWLGNDKISQLTRMGPTELLIEMEDWKGDKVKAHYGGFTVQNEANKYQISVNKYRGTAGNALMDGASQLMGENRTMTIHNGMFFSTYDRDNDGWLTSDPRKQCSKEDGGGWWYNRCHAANPNGRYYWGGQYTWDMAKHGTDDGVVWMNWKGSWYSMRKMSMKIRPFFPQQ
chain 3: YVATRDNCCILDERFGSYCPTTCGIADFLSTYQTKVDKDLQSLEDILHQVENKTSEVKQLIKAIQLTYNPDESSKPNMIDAATLKSRKMLEEIMKYEASILTHDSSIRYLQEIYNSNNQKIVNLKEKVAQLEAQCQEPCKDTVQIHDITGKDCQDIANKGAKQSGLYFIKPLKANQQFLVYCEIDGSGNGWTVFQKRLDGSVDFKKNWIQYKEGFGHLSPTGTTEFWLGNEKIHLISTQSAIPYALRVELEDWNGRTSTADYAMFKVGPEADKYRLTYAYFAGGDAGDAFDGFDFGDDPSDKFFTSHNGMQFSTWDNDNDKFEGNCAEQDGSGWWMNKCHAGHLNGVYYQGGTYSKASTPNGYDNGIIWATWKTRWYSMKKTTMKIIPFNRLTIGEGQQHHLGGAKQVRPEHPAETEYDSLYPEDDL
Turning to B1, in test [1], the Kd is 15.5 nM and 14.3 nM and 15.1 nM; the koff was 0.000922 s⁻¹ and 0.000948 s⁻¹ and 0.000989 s⁻¹. Also, in test [2], the Kd was 177 nM and 188 nM and 208 nM; the koff is 0.00271 s⁻¹ and 0.0024 s⁻¹ and 0.00216 s⁻¹.
